Results taken from the supplement of paper PMC5998384.

How the values were obtained:
HeLa Kyoto [1] = assay: thermal stability score vs G1/S (z-score of summed log2 fold changes over temperatures); higher = more thermally stable than in G1/S
HeLa Kyoto [2] = assay: melting temperature (median over replicates), in situ; higher = more thermally stable
HeLa Kyoto [3] = assay: solubility in G1/S (NP-40 vs SDS abundance) (log2 ratio); higher = more soluble; settings: cell cycle stage: G1/S
HeLa Kyoto [4] = assay: solubility change mitosis vs G1/S (difference of NP-40 vs SDS log2 ratios) (log2 ratio difference); higher = more soluble in mitosis
[5] = cell cycle stage: early G1 (4.5 h after nocodazole release)
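Wherever melting temperature (median over replicates), in situ is given: HeLa Kyoto cells synchronized by double thymidine or nocodazole block, proteins quantified by TMT10plex mass spectrometry, three independent biological replicates.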
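Wherever solubility change mitosis vs G1/S (difference of NP-40 vs SDS log2 ratios) is given: synchronized HeLa Kyoto cells (double thymidine block for G1/S, nocodazole release for mitosis), protein amounts in NP-40 versus SDS lysates quantified by mass spectrometry, three biological replicates.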
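Wherever solubility in G1/S (NP-40 vs SDS abundance) is given: HeLa Kyoto cells arrested at G1/S by double thymidine block, proteins quantified by TMT10plex mass spectrometry in mild NP-40 versus SDS extracts, three biological replicates.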
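Wherever thermal stability score vs G1/S (z-score of summed log2 fold changes over temperatures) is given: synchronized HeLa Kyoto cells, proteins quantified by TMT10plex mass spectrometry, three biological replicates, mitosis taken 0.5 h after nocodazole release, G1/S directly after double thymidine block.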

Sequence of ARHGAP4 (chain, as listed by the source): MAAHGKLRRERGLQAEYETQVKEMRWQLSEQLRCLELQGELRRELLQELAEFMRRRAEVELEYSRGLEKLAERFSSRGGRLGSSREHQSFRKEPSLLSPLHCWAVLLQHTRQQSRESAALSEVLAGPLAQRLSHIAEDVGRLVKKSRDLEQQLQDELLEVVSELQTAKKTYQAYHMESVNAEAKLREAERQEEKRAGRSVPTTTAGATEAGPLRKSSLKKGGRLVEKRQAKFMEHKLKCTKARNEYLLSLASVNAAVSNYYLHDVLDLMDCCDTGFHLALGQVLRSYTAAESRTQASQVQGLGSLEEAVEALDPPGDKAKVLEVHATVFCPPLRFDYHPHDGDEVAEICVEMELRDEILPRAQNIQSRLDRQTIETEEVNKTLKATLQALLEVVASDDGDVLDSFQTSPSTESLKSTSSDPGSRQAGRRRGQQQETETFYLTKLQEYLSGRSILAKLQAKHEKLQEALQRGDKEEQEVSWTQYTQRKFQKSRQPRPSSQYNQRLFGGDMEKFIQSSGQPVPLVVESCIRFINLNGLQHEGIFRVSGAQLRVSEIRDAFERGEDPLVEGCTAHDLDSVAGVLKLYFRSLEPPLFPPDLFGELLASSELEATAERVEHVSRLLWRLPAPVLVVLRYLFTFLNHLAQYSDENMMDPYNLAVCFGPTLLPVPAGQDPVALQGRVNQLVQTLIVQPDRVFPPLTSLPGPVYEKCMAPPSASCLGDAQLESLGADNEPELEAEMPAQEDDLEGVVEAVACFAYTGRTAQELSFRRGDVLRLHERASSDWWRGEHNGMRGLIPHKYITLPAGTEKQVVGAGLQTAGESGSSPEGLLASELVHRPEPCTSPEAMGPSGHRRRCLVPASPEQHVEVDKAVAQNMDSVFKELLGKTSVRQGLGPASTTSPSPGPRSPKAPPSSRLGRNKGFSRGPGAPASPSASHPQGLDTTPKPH

Substance	thermal stability score (HeLa Kyoto [1]; [5])	thermal stability score (HeLa Kyoto [1]; cell cycle stage: mitosis)	melting temperature (HeLa Kyoto [2]; cell cycle stage: mitosis)	solubility in G1/S (log2) (HeLa Kyoto [3])	solubility change mitosis (log2) (HeLa Kyoto [4])	melting temperature (HeLa Kyoto [2]; cell cycle stage: G1/S)
MAAAAARWNHVWVGTETGILKGVNLQRKQAANFTAGGQPRREEAVSALCWGTGGETQMLVGCADRTVKHFSTEDGIFQGQRHCPGGEGMFRGLAQADGTLITCVDSGILRVWHDKDKDTSSDPLLELRVGPGVCRMRQDPAHPHVVATGGKENALKIWDLQGSEEPVFRAKNVRNDWLDLRVPIWDQDIQFLPGSQKLVTCTGYHQVRVYDPASPQRRPVLETTYGEYPLTAMTLTPGGNSVIVGNTHGQLAEIDLRQGRLLGCLKGLAGSVRGLQCHPSKPLLASCGLDRVLRIHRIQNPRGLEHKVYLKSQLNCLLLSGRDNWEDEPQEPQEPNKVPLEDTETDELWASLEAAAKRKLSGLEQPQGALQTRRRKKKRPGSTSP [WDR74]	-0.813	-1.48	52 °C	-0.848	0.631	
MSSSVEQKKGPTRQRKCGFCKSNRDKECGQLLISENQKVAAHHKCMLFSSALVSSHSDNESLGGFSIEDVQKEIKRGTKLMCSLCHCPGATIGCDVKTCHRTYHYHCALHDKAQIREKPSQGIYMVYCRKHKKTAHNSEADLEESFNEHELEPSSPKSKKKSRKGRPRKTNFKGLSEDTRSTSSHGTDEMESSSYRDRSPHRSSPSDTRPKCGFCHVGEEENEARGKLHIFNAKKAAAHYKCMLFSSGTVQLTTTSRAEFGDFDIKTVLQEIKRGKRMKCTLCSQPGATIGCEIKACVKTYHYHCGVQDKAKYIENMSRGIYKLYCKNHSGNDERDEEDEERESKSRGKVEIDQQQLTQQQLNGN [PHF6]	1.18	1.95	50.6 °C	-0.717	0.284	48.6 °C
MLLPLLLLLPMCWAVEVKRPRGVSLTNHHFYDESKPFTCLDGSATIPFDQVNDDYCDCKDGSDEPGTAACPNGSFHCTNTGYKPLYIPSNRVNDGVCDCCDGTDEYNSGVICENTCKEKGRKERESLQQMAEVTREGFRLKKILIEDWKKAREEKQKKLIELQAGKKSLEDQVEMLRTVKEEAEKPEREAKEQHQKLWEEQLAAAKAQQEQELAADAFKELDDDMDGTVSVTELQTHPELDTDGDGALSEAEAQALLSGDTQTDATSFYDRVWAAIRDKYRSEALPTDLPAPSAPDLTEPKEEQPPVPSSPTEEEEEEEEEEEEEAEEEEEEEDSEEAPPPLSPPQPASPAEEDKMPPYDEQTQAFIDAAQEARNKFEEAERSLKDMEESIRNLEQEISFDFGPNGEFAYLYSQCYELTTNEYVYRLCPFKLVSQKPKLGGSPTSLGTWGSWIGPDHDKFSAMKYEQGTGCWQGPNRSTTVRLLCGKETMVTSTTEPSRCEYLMELMTPAACPEPPPEAPTEDDHDEL [PRKCSH]	0.00878	0.443	57.4 °C	0.337	-0.0303	55 °C
MGPLPRTVELFYDVLSPYSWLGFEILCRYQNIWNINLQLRPSLITGIMKDSGNKPPGLLPRKGLYMANDLKLLRHHLQIPIHFPKDFLSVMLEKGSLSAMRFLTAVNLEHPEMLEKASRELWMRVWSRNEDITEPQSILAAAEKAGMSAEQAQGLLEKIATPKVKNQLKETTEAACRYGAFGLPITVAHVDGQTHMLFGSDRMELLAHLLGEKWMGPIPPAVNARL [GSTK1]	-1.28	-0.907	52 °C	0.121	-0.098	50.9 °C
MIALFNKLLDWFKALFWKEEMELTLVGLQYSGKTTFVNVIASGQFNEDMIPTVGFNMRKITKGNVTIKLWDIGGQPRFRSMWERYCRGVSAIVYMVDAADQEKIEASKNELHNLLDKPQLQGIPVLVLGNKRDLPGALDEKELIEKMNLSAIQDREICCYSISCKEKDNIDITLQWLIQHSKSRRS [ARL8A]	-1.51	-1.71	54.4 °C	-0.0955	-0.116	54.3 °C
MAMGLFRVCLVVVTAIINHPLLFPRENATVPENEEEIIRKMQAHQEKLQLEQLRLEEEVARLAAEKEALEQVAEEGRQQNETRVAWDLWSTLCMILFLMIEVWRQDHQEGPSPECLGGEEDELPGLGGAPLQGLTLPNKATLGHFYERCIRGATADAARTREFLEGFVDDLLEALRSLCNRDTDMEVEDFIGVDSMYENWQVDRPLLCHLFVPFTPPEPYRFHPELWCSGRSVPLDRQGYGQIKVVRADGDTLSCICGKTKLGEDMLCLLHGRNSMAPPCGDMENLLCATDSLYLDTMQVMKWFQTALTRAWKGIAHKYEFDLAFGQLDSPGSLKIKFRSGKFMPFNLIPVIQCDDSDLYFVSHLPREPSEGTPASSTDWLLSFAVYERHFLRTTLKALPEGACHLSCLQIASFLLSKQSRLTGPSGLSSYHLKTALLHLLLLRQAADWKAGQLDARLHELLCFLEKSLLQKKLHHFFIGNRKVPEAMGLPEAVLRAEPLNLFRPFVLQRSLYRKTLDSFYEMLKNAPALISEYSLHVPSDQPTPKS [ITPRIP]	-0.0632	-0.00908		0.169	-0.1	52 °C
MSLDIQSLDIQCEELSDARWAELLPLLQQCQVVRLDDCGLTEARCKDISSALRVNPALAELNLRSNELGDVGVHCVLQGLQTPSCKIQKLSLQNCCLTGAGCGVLSSTLRTLPTLQELHLSDNLLGDAGLQLLCEGLLDPQCRLEKLQLEYCSLSAASCEPLASVLRAKPDFKELTVSNNDINEAGVRVLCQGLKDSPCQLEALKLESCGVTSDNCRDLCGIVASKASLRELALGSNKLGDVGMAELCPGLLHPSSRLRTLWIWECGITAKGCGDLCRVLRAKESLKELSLAGNELGDEGARLLCETLLEPGCQLESLWVKSCSFTAACCSHFSSVLAQNRFLLELQISNNRLEDAGVRELCQGLGQPGSVLRVLWLADCDVSDSSCSSLAATLLANHSLRELDLSNNCLGDAGILQLVESVRQPGCLLEQLVLYDIYWSEEMEDRLQALEKDKPSLRVIS [RNH1]	1.78	1.35	52.8 °C	0.188	-0.113	52.8 °C
MSSVSPIQIPSRLPLLLTHEGVLLPGSTMRTSVDSARNLQLVRSRLLKGTSLQSTILGVIPNTPDPASDAQDLPPLHRIGTAALAVQVVGSNWPKPHYTLLITGLCRFQIVQVLKEKPYPIAEVEQLDRLEEFPNTCKMREELGELSEQFYKYAVQLVEMLDMSVPAVAKLRRLLDSLPREALPDILTSIIRTSNKEKLQILDAVSLEERFKMTIPLLVRQIEGLKLLQKTRKPKQDDDKRVIAIRPIRRITHISGTLEDEDEDEDNDDIVMLEKKIRTSSMPEQAHKVCVKEIKRLKKMPQSMPEYALTRNYLELMVELPWNKSTTDRLDIRAARILLDNDHYAMEKLKKRVLEYLAVRQLKNNLKGPILCFVGPPGVGKTSVGRSVAKTLGREFHRIALGGVCDQSDIRGHRRTYVGSMPGRIINGLKTVGVNNPVFLLDEVDKLGKSLQGDPAAALLEVLDPEQNHNFTDHYLNVAFDLSQVLFIATANTTATIPAALLDRMEIIQVPGYTQEEKIEIAHRHLIPKQLEQHGLTPQQIQIPQVTTLDIITRYTREAGVRSLDRKLGAICRAVAVKVAEGQHKEAKLDRSDVTEREGCREHILEDEKPESISDTTDLALPPEMPILIDFHALKDILGPPMYEMEVSQRLSQPGVAIGLAWTPLGGEIMFVEASRMDGEGQLTLTGQLGDVMKESAHLAISWLRSNAKKYQLTNAFGSFDLLDNTDIHLHFPAGAVTKDGPSAGVTIVTCLASLFSGRLVRSDVAMTGEITLRGLVLPVGGIKDKVLAAHRAGLKQVIIPRRNEKDLEGIPGNVRQDLSFVTASCLDEVLNAAFDGGFTVKTRPGLLNSKL [LONP2]	0.257	0.49	52.1 °C	0.0116	-0.132	52.3 °C
NUP98	-1.52	-1.57	48.6 °C	-0.162	0.26	48.4 °C
MERPDKAALNALQPPEFRNESSLASTLKTLLFFTALMITVPIGLYFTTKSYIFEGALGMSNRDSYFYAAIVAVVAVHVVLALFVYVAWNEGSRQWREGKQD [VMA21]	-1.79	-0.397	56.7 °C	-0.135	-0.124	55.6 °C
MCM3AP	-0.00305	-0.291	49.5 °C	-0.867	0.655	48.7 °C
MSKTNKSKSGSRSSRSRSASRSRSRSFSKSRSRSRSLSRSRKRRLSSRSRSRSYSPAHNRERNHPRVYQNRDFRGHNRGYRRPYYFRGRNRGFYPWGQYNRGGYGNYRSNWQNYRQAYSPRRGRSRSRSPKRRSPSPRSRSHSRNSDKSSSDRSRRSSSSRSSSNHSRVESSKRKSAKEKKSSSKDSRPSQAAGDNQGDEAKEQTFSGGTSQDTKASESSKPWPDATYGTGSASRASAVSELSPRERSPALKSPLQSVVVRRRSPRPSPVPKPSPPLSSTSQMGSTLPSGAGYQSGTHQGQFDHGSGSLSPSKKSPVGKSPPSTGSTYGSSQKEESAASGGAAYTKRYLEEQKTENGKDKEQKQTNTDKEKIKEKGSFSDTGLGDGKMKSDSFAPKTDSEKPFRGSQSPKRYKLRDDFEKKMADFHKEEMDDQDKDKAKGRKESEFDDEPKFMSKVIGANKNQEEEKSGKWEGLVYAPPGKEKQRKTEELEEESFPERSKKEDRGKRSEGGHRGFVPEKNFRVTAYKAVQEKSSSPPPRKTSESRDKLGAKGDFPTGKSSFSITREAQVNVRMDSFDEDLARPSGLLAQERKLCRDLVHSNKKEQEFRSIFQHIQSAQSQRSPSELFAQHIVTIVHHVKEHHFGSSGMTLHERFTKYLKRGTEQEAAKNKKSPEIHRRIDISPSTFRKHGLAHDEMKSPREPGYKAEGKYKDDPVDLRLDIERRKKHKERDLKRGKSRESVDSRDSSHSRERSAEKTEKTHKGSKKQKKHRRARDRSRSSSSSSQSSHSYKAEEYTEETEEREESTTGFDKSRLGTKDFVGPSERGGGRARGTFQFRARGRGWGRGNYSGNNNNNSNNDFQKRNREEEWDPEYTPKSKKYYLHDDREGEGSDKWVSRGRGRGAFPRGRGRFMFRKSSTSPKWAHDKFSGEEGEIEDDESGTENREEKDNIQPTTE [THRAP3]	-5.24	-3.44	51.2 °C	-1.38	0.46	50.5 °C
ARHGAP21	0.0615	0.748	50.2 °C	-0.453	0.156	47.6 °C
MAESDWDTVTVLRKKGPTAAQAKSKQAILAAQRRGEDVETSKKWAAGQNKQHSITKNTAKLDRETEELHHDRVTLEVGKVIQQGRQSKGLTQKDLATKINEKPQVIADYESGRAIPNNQVLGKIERAIGLKLRGKDIGKPIEKGPRAK [EDF1]	-4.76	-6.66	52.7 °C	0.119	0.78	55.2 °C
METSAPRAGSQVVATTARHSAAYRADPLRVSSRDKLTEMAASSQGNFEGNFESLDLAEFAKKQPWWRKLFGQESGPSAEKYSVATQLFIGGVTGWCTGFIFQKVGKLAATAVGGGFFLLQLANHTGYIKVDWQRVEKDMKKAKEQLKIRKSNQIPTEVRSKAEEVVSFVKKNVLVTGGFFGGFLLGMAS [FUNDC2]	-0.847	-1.68	55.9 °C	0.0627	-0.0574	58.2 °C
ARHGAP4	0.224	0.251	50.3 °C	0.0702	-0.000167	52.5 °C
MFVPCGESAPDLAGFTLLMPAVSVGNVGQLAMDLIISTLNMSKIGYFYTDCLVPMVGNNPYATTEGNSTELSINAEVYSLPSRKLVALQLRSIFIKYKSKPFCEKLLSWVKSSGCARVIVLSSSHSYQRNDLQLRSTPFRYLLTPSMQKSVQNKIKSLNWEEMEKSRCIPEIDDSEFCIRIPGGGITKTLYDESCSKEIQMAVLLKFVSEGDNIPDALGLVEYLNEWLQILKPLSDDPTVSASRWKIPSSWRLLFGSGLPPALF [PSMG2]	-0.904	-2.71	53.9 °C	0.264	-0.0561	54.2 °C
